# Legend:
# [1] = molecular target: human FcγRI, His6-tagged (human) (UniProt P12314); experiment: SPR, 1:1 kinetic
# [2] = molecular target: human FcγRIIb, His6-tagged (human) (UniProt P31994); experiment: SPR, steady state
# Chain of human FcγRIIb, His6-tagged (human) (P31994 43-217 limits assumed): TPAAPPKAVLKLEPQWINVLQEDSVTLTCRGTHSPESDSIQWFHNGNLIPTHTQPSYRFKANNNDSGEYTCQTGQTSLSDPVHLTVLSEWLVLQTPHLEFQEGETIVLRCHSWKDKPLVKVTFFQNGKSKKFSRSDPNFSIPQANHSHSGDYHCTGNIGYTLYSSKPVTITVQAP
# Chain of human FcγRI, His6-tagged (human) (P12314 16-288 limits assumed): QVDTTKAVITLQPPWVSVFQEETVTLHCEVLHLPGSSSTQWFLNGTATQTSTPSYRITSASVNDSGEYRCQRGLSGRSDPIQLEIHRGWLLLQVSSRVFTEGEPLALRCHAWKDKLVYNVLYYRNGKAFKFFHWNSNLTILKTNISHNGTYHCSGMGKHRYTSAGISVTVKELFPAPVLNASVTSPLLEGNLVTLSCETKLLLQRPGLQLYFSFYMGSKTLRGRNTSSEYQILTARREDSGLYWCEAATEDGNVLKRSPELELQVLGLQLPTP
substance,measurement,setting,value
isotype control human IgG4 (antibody),Kd,[1],0.00925 µM
same,Kd,[2],23.1 µM
